Test results from the nanobody polyreactivity screen of Harvey et al. (2022).

assay: yeast display, Sf9 membrane polyspecificity reagent, FACS + sequencing; frameworks hold sequencing errors
Summary of the method: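 Galactose-induced (36–48 hours) yeast carrying a synthetic nanobody display library were exposed to 10% biotinylated, detergent-solubilized Sf9 membrane reagent at 4 °C for 1 hour. FACS followed streptavidin microbead enrichment, using low and high (top ~1%) gates for expression (anti-HA) and reagent binding (streptavidin). Colony PCR, MiSeq 2 × 250 sequencing and CDR-length filtering followed. Labels for polyreactivity reflect the gate of origin.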

| Sequence | polyreactivity (PSR sort gate) |
| --- | --- |
| QVQLVESGGGLVQAGGSLRLSCASSGSTFYGNAMGWYRQAPGKERELVATISSGGSTDYADSVKGRFTISRDNAKNTVYLQMNSLKPEDTAVYYCATDNYLGYYYKDGVLDDYWGQGTQVTVSS | low polyreactivity |
| QVQLVESGGGLVQAGGSLRLSCASSGSTFYGNAMGWYRQEPGKERELVASISSGGTNYADSVKGRFTISRDNAKNTVYLQMNSLKPEDTAVYYLNADYIDTFRGFDYWGQGTQVTVSS | low polyreactivity |
| QVQLVESGGGLVQAGGSLRLSCASSGSTIRSYAMGWYRQAPGKERELVAVISSGDSTYYADSVKGRFTISRDNAKNTVYLQMNSLKPDDTAVYYCAADSYVLGRWYGYWGQGTQVTVSS | low polyreactivity |
| QVQLVESGGGLVQAGGSLRLSCASSGSTYYVYGMVWYRQAPGKERELVAAISWSGGDTYYADSVKGRFTISRDNAKKTVYFQMNPLKPEDTGVYYCAAVYNYPVVCEYDYWGQGTQVTVSS | high polyreactivity |
| QVQLVESGGGLVQAGGSLRLSCASSRNIFYLYAMGWYRQAPGKEREFSTSYADSEKGRFTISRDNAKNTVYLQMNSLKPEDTAVYYCAAYNSRGPYYYLFDYWGQGSQVTVSS | low polyreactivity |
| QVQLVESGGGLVQAGGSLRLSCASYGSIFSSYFMGWYRQAPGKERELVAAISSGGRTYYADSVKGRFTISRDNAKNTVYIQMKSLKPEDTAVFYCNRVRYRQSAFDYWGQGTQVTVSS | high polyreactivity |
| QVQLVESGGGLVQAGGSLRLSCATSGGIFDSYAMVWYRQAPGKERELVASISWSGGSTYYADSVKGRFTISRDNEKNTVYLQMKSLKPEVTAVYYCAADRPYAGRFWKGYHSALYDYWGQGTQVTVSS | low polyreactivity |
| QVQLVESGGGLVQAGGSLRLSCAYSGRTFYYNTMGWYRQAPGKEREFVATISRIGGSTYYADSVKGRFTISRDNAKNTVYFQMNSLKPEDTAVYYCAKGRSLNGLPPVVYWQLFYYWGQGTLVTVSS | high polyreactivity |
| QVQLVESGGGLVQAGGSLRLSCDASASILRENAMGWYRQAPGKERELVAVITRGGNTYYADSVKGRFTISRDNAKNTVYLQMNSLKPEDTAVYYCAAKRRERYGQTYGYWGQGTQVTVSS | high polyreactivity |
| QVQLVESGGGLVQAGGSLRLSCDASGFIFRRYTMGWNRQAPGKETELVPAITSSGGTNYADSVKGRFTISRDNAKNNVFVLRNSLKPEDTAVYYCAARRLTQQGYGGGYWGQGTQVTVAS | high polyreactivity |
| QVQLVESGGGLVQAGGSLRLSCDASGFIFVRYAMGWYRQAPGKEREFVAAISRSGGSTYYADSVKGRFTISRDNAKNTVYLQMNSLKPEDTAVYYCARQYASPRREFEYWGQGTQVTVSS | high polyreactivity |
| QVQLVESGGGLVQAGGSLRLSCDASGFILYYNAMGWYRQAPGKEREMVAAITSGGGGTYYADSVKGRFTNSRDNAKNTVYFQMNSLNPEDTAVYYCNTRFGYRGGVDFDYWGQGTQVTVSS | high polyreactivity |
| QVQLVESGGGLVQAGGSLRLSCDASGFTFGRNAMGWYRQAPGKERELVAAISSSGGTTYYADSVKGRFTISRDNAKNTVYLQMNSLKPEDTAVYYCAAGYYYRYDYWGQGTQVTVSS | high polyreactivity |
| QVQLVESGGGLVQAGGSLRLSCDASGFTFPSYAMGWYRQAPGKERELVAAISYRGGRTYYADSVKGRFTISRDNAKNTVYLQMNSLKPEDTAVYYCAAAGYAWWGEYEYWGQGTQVTVSS | high polyreactivity |
| QVQLVESGGGLVQAGGSLRLSCDASGFTFVYYAMGCYRQAPGKERELVAAISGRGGSTYYADSVKGRFTISRDNAKNTVYLQMNSLKPEDTAVYYCATTYSWYYVPYKTHIYYYWGQGTQVTVSS | low polyreactivity |
| QVQLVESGGGLVQAGGSLRLSCDASGFTFYKNAMGWYRQAPGKERELVAAISSGGSTSYADSVKGRFTISRDNAKNTVYLQMNSLKPEDTAVYFCAADRFAFYGRYRGPYYYWGQGTQVTVSS | high polyreactivity |
| QVQLVESGGGLVQAGGSLRLSCDASGFTFYYYAMGWYRPAPGKERELVAAISSSGSSTYYADSVKGRFTISRDNAKNTVYLQMNSLKPEDTAVYYCNARRYEYLWGDYWGQGTQVTVSS | high polyreactivity |
| QVQLVESGGGLVQAGGSLRLSCDASGGTFYVNHMAWYRPAPWKERELVATITYSGTSTYYADSVKGRFTISRDNAKNTVYLQMNSLKPEDTAVYYCATDVLLYFEPVNLDYWGQGTQVTVSS | low polyreactivity |
| QVQLVESGGGLVQAGGSLRLSCDASGIIFAWYAMGWSRQAPGKERELVAAISSDGITKDADSVKGRFTISRDNAKNTVYLQMNSLKPEDTAVYYCAAGLGWGLYWIDSYEYWGQGTQVTVSS | low polyreactivity |
| QVQLVESGGGLVQAGGSLRLSCDASGIIFGYYAMGWYRQAPGKERELVAGITWRGDITYADSVKGRFTISRDNAKNTVYLQMNSLKPEDTAVYYCAAESSFYRGYGYWGQGTQVTVSS | high polyreactivity |
| QVQLVESGGGLVQAGGSLRLSCDASGIIFTFYTMGWYRQAPGKERELVAAITWSGGSTNYADSVKGRFTISRDNAKNTVYLQMNSLKPEDTAVYYCAAQGYPQSPPWEDYWGQGTQVTVSS | low polyreactivity |
| QVQLVESGGGLVQAGGSLRLSCDASGITFYRYAMGWYRQAPGKERELVAAITSGDTTYYADSVKGRFTISRDNAKNTVYLQMNSLKPEDTADYYCAAVAGYRVVRTRELGYWGQGTQVTVSS | high polyreactivity |
| QVQLVESGGGLVQAGGSLRLSCDASGLTFRYYAMVWYRQAHGKERELDATITRAGRTNYADSVKGRFTISRDNAKNTVYFQMNRLNPEDTAVYYCNAKQSGKYPRVVGYDYWGQGTQVTVSS | high polyreactivity |
| QVQLVESGGGLVQAGGSLRLSCDASGRIFQPNVMGWYRQAPGKERELVAAIRSGSSTYYADSVKGRFTISRDNAKNTFYLQMNSLKPEDTAVYYCATRYRKQYKPYEYWGQGTQVTVSS | high polyreactivity |
| QVQLVESGGGLVQAGGSLRLSCDASGRIFRENAMGWYRQAPGKERELVAAINRSGSRTYYADSVKGRFTISRDNAKNTVYLQMNSLKPEDTAVYYCATASSIRYDYWGQGTQVTVSS | high polyreactivity |
| QVQLVESGGGLVQAGGSLRLSCDASGRIFSPNTMGWYRQAPGKERELVAAISRGGSTYADSVKGRFTISRDNAKITVYLQMNSLKPEDTAVYYCNARYGRYYGAYEYWGQGTQVTVSS | high polyreactivity |
| QVQLVESGGGLVQAGGSLRLSCDASGRILKYYDMGWYRQAPGKERELVAAISVSGTSTYYADSVKGRFTISRDNAKNTVYLQMNSLKPEDTAVYYCATATGRYSFDYWGQGTQVTVSS | low polyreactivity |
| QVQLVESGGGLVQAGGSLRLSCDASGRIYGYNAIAWYRQAPGKERELVAAITNGGSTNYADSVKGRFTISRDNAKNTVFLQMNSLKPDETAVYYCAVKWYAPGHDYWGQGTQVTVSS | low polyreactivity |
| QVQLVESGGGLVQAGGSLRLSCDASGRIYLYAMGWYRQAPGKERELVAAITTRAGRTYYADSVKGRFTISRDNAKNTVYFQMNSLKPEDNAVSYCAADGTRYPAYGYWGQGTQVTVSS | low polyreactivity |
| QVQLVESGGGLVQAGGSLRLSCDASGRSSVSMLMVWYRQAPGKERELVARITGSGGSTYYADSVKGRFTISRDNAKNTVYLQMNSLKPEDTAVYYCAARYLWRGRYNYWGQGTQVTVSS | high polyreactivity |
